The values below come from paper PMC9784774 (2022).

This assay deals with T1, recombinant gH/gL/UL128/UL130/UL131A pentamer (wild type) (human cytomegalovirus | human …).
T1 chain 1: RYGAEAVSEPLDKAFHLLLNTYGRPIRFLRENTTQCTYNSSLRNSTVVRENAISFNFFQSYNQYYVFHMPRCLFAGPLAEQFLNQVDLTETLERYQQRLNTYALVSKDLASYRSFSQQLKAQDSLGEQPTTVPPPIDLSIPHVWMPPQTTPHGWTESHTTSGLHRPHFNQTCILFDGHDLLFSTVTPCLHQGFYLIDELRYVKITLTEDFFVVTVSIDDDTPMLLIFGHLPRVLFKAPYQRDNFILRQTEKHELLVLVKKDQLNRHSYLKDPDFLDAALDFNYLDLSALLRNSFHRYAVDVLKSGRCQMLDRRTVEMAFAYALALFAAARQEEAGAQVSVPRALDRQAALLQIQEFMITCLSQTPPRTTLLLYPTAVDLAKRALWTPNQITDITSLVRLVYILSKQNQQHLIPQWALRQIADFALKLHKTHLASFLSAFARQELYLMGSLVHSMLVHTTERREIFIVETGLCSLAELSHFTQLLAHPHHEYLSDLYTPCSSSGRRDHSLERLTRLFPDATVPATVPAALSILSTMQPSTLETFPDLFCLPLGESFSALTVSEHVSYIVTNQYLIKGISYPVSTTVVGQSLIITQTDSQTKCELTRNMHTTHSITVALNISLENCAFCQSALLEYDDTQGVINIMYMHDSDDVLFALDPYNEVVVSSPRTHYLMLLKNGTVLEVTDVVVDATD
T1 chain 2: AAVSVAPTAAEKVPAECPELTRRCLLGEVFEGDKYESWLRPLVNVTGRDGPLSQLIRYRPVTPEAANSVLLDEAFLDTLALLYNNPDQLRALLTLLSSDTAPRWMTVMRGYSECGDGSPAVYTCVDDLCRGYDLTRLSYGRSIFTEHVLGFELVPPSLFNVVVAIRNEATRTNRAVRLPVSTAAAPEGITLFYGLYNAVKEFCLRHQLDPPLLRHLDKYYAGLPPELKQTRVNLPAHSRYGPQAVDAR
T1 chain 3: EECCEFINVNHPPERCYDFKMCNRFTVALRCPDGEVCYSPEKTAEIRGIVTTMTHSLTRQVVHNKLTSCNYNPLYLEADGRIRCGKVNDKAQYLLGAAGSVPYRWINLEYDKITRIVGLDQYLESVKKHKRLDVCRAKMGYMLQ
T1 chain 4: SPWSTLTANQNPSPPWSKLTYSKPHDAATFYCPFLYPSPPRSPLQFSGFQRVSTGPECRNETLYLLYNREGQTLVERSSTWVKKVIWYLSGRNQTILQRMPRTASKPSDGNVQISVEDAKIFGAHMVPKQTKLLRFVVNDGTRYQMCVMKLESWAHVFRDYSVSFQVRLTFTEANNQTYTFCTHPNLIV
T1 chain 5: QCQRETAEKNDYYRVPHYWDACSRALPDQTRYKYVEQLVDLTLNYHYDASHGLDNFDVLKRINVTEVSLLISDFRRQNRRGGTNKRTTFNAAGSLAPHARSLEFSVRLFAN
Nature of the assay: SPR.

By koff is commonly meant the rate constant with which the complex falls apart.

B1: MAb 9I6 (antibody, V domains shown)
VH: EVQLVQSGAEVKKPGESLKISCRESGDTFPAYWIAWVRQMPGKGLEWMGIIYPIDSETTYSPSFQGQVTISADKSINTAYLQWSSLKASDSAIYYCARGTSTGLREAFHIWGQGTMVTVSS
VL: DVVMTQSPLSLAVTLGQPAYISCRSSQSLGYSDGNTYLNWFQQRPGQSPRRLIYEVSNRDSGVPDRFSGSGSGTDFTLKISRVEAEDVGTYYCMQGTHWPPMCSFGQGTKLEIK
Regarding B1, the koff came out at 0.000151 s⁻¹.
